Literature values in article PMC2363349.
pKd: −log10 of the molar value.

Target: TGF-βRII (Homo sapiens) (UniProt P37173)
Sequence (P37173 23-166): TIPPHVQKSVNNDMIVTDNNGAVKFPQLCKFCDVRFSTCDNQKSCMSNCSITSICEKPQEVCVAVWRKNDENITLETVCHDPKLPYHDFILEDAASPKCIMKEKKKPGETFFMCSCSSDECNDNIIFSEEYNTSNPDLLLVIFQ

Sequence of TGF-β1 (P01137 279-390): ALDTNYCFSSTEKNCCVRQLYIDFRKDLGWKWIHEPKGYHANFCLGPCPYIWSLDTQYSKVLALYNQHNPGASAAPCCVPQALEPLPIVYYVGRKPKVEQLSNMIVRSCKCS

Question: With TGF-β1 (from UniProt P01137) as the substance, how does the pKd read?
Answer: 9.30
